Assay results from patent US20190083587A1 (Novo Nordisk, published 2019).

T1: human fibrinogen (human, UniProt P02671 20-629; P02675 31-491; P02679 27-437, limits assumed)
T1 construct: the chain composition (two each of alpha, beta, gamma) is from general knowledge; also called HCI-0150R Haematologic technologies
T1 sequence (looked up) 1: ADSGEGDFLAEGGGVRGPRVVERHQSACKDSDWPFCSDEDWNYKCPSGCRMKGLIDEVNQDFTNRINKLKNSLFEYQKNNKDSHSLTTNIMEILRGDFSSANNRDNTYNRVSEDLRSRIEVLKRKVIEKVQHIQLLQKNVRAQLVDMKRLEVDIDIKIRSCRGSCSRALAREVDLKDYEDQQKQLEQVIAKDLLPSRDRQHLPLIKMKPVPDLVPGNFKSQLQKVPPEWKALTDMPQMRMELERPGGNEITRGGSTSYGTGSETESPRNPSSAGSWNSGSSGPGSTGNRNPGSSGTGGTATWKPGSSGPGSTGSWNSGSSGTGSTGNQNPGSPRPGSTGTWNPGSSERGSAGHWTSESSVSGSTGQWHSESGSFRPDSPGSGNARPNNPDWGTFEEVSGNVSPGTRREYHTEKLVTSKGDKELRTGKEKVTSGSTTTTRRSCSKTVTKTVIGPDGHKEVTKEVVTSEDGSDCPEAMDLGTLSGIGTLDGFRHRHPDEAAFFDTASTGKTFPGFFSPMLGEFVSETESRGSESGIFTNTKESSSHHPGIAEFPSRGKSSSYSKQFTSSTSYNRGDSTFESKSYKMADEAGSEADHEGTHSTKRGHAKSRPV
T1 sequence (looked up) 2: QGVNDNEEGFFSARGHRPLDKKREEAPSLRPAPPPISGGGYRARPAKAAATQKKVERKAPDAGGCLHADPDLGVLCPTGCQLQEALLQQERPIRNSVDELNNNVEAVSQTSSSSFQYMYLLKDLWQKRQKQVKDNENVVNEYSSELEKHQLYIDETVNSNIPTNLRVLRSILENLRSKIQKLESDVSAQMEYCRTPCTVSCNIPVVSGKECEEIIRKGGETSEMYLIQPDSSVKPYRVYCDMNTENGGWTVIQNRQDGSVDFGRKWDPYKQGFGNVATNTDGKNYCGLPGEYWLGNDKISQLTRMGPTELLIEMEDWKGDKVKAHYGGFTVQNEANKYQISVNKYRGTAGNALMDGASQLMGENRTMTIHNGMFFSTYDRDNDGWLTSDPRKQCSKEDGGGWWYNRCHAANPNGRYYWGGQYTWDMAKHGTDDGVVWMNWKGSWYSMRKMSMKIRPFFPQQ
T1 sequence (looked up) 3: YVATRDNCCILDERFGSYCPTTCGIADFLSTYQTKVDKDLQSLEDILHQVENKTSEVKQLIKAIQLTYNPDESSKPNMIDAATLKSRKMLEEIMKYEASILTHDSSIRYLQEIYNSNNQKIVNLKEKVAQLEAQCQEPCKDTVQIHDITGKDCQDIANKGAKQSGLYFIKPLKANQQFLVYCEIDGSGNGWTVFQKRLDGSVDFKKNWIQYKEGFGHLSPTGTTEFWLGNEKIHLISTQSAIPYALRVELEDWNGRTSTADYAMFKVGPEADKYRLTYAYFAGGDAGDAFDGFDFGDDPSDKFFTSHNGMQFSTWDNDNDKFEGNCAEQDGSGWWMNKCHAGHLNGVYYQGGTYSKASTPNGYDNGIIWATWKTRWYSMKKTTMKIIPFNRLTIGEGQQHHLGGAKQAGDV

B1: hTLT-1 ECD-His (receptor)
chain: QGIVGSLPEVLQAPVGSSILVQCHYRLQDVKAQKVWCRFLPEGCQPLVSSAVDRRAPAGRRTFLTDLGGGLLQVEMVTLQEEDAGEYGCMVDGARGPQILHRVSLNILPPEEEEETHKIGSLAENAFSDPAGSANPLEPSQDEKSIPHHHHHH
notes: Extracellular domain of human TLT-1 with C-terminal His-6 tag; the range 16-168 is computed from these; also called TLT-1-His; His tagged human TLT1
B2: Fab0074 (Fab)
heavy: QVQLEQSGAELVRPGVSVKISCKGSGYTFTDYSMHWVKQSHAKSLEWIGVISTYYGDVRYNQKFKGKATMTVDKSSSTAYMALARLTSEDSAIYYCARAPMITTGAWFAYWGQGTLVTVSAASTKGPSVFPLAPCSRSTSESTAALGCLVKDYFPEPVTVSWNSGALTSGVHTFPAVLQSSGLYSLSSVVTVPSSSLGTKTYTCNVDHKPSNTKVDKRVESKYGPPC
light: SIVMTQTPKFLLVSAGDRVTITCKASQSVSNDVAWYQQKPGQSPKLLINYASSRYTGIPDRFTGSGYGTDFTFTISTVQAEDLAVYFCQQDYSSPYTFGGGTKLEIERTVAAPSVFIFPPSDEQLKSGTASVVCLLNNFYPREAKVQWKVDNALQSGNSQESVTEQDSKDSTYSLSSTLTLSKADYEKHKVYACEVTHQGLSSPVTKSFNRGECEDQVDPRLIDGK
notes: VH-CH1 (human IgG4) with partial hinge YGPPC (one free Cys); light chain with HPC4 tag; Entries may include signal peptides; also called antiTLT-1 0074Fab-YGPPC; (0051LC-HPC4)
B3: Fab0084 (Fab)
heavy: EVKLLESGGGLVQPGGSLKLSCAASGFDFSRYWMTWVRQAPGKGLEWIGEINPDSSTINYNPSLKDKFIISRDNAKNTLYLQMSEVRSEDTALYYCASGVFTSWGQGTLVTVSAASTKGPSVFPLAPCSRSTSESTAALGCLVKDYFPEPVTVSWNSGALTSGVHTFPAVLQSSGLYSLSSVVTVPSSSLGTKTYTCNVDHKPSNTKVDKRVESKYGPPC
light: DVVMTQTPLSLPVSLGDQASISCRSSQSLVHRNGNTYFHWALQKPGQSPKLLIYKVSNRFSGVPDRFSGSGSGTDFTLKISRVEAEDLGVYFCSQSTHVPYTFGGGTKLEIKRTVAAPSVFIFPPSDEQLKSGTASVVCLLNNFYPREAKVQWKVDNALQSGNSQESVTEQDSKDSTYSLSSTLTLSKADYEKHKVYACEVTHQGLSSPVTKSFNRGECEDQVDPRLIDGK
notes: VH-CH1 (human IgG4) with partial hinge YGPPC (one free Cys); light chain with HPC4 tag; the ends of the ranges are computed; also called antiTLT-1 0084Fab-YGPPC; (0012VH.T60N-CH1-YGPPC)
B4: Fab0003 (Fab)
heavy: QVQLQQSGAEPMKPGASVKISCKATGYTFSSHWIEWIKQRPGHGLEWIGEILPGSGNTNYNEKFKGKATFTADTSSNTAYMQLSSLTSEDSAVYYCARGYYGLNYDWYFDVWGAGTTVTVSSASTKGPSVFPLAPCSRSTSESTAALGCLVKDYFPEPVTVSWNSGALTSGVHTFPAVLQSSGLYSLSSVVTVPSSSLGTKTYTCNVDHKPSNTKVDKRVESKYGPPC
light: DIQMTQTTSSLSASLGDRVTISCRASQDISNYLNWYQQKPDGTVKLLIFYTSRLHSGVPSRFSGSGSGTDYSLTISNLEPEDIATYYCQQDTKLPYTFGGGTKLEMKRTVAAPSVFIFPPSDEQLKSGTASVVCLLNNFYPREAKVQWKVDNALQSGNSQESVTEQDSKDSTYSLSSTLTLSKADYEKHKVYACEVTHQGLSSPVTKSFNRGECEDQVDPRLIDGK
notes: VH-CH1 (human IgG4) with partial hinge YGPPC; light chain with HPC4 tag; Entries may include signal peptides; also called antiTLT-1 0003Fab-YGPPC; (0052LC-HPC4)
B5: Fab0004 (Fab)
heavy: EVRLVESGGGLVQPGGSLKLSCATSGFTFSDYFMYWIRQTPEKRLEWVAYISNGGDSSSYPDTVKGRFTISRDNAKNTLYLQMSRLKSEDTAMYYCATNKNWDDYYDMDYWGQGTSVTVSSASTKGPSVFPLAPCSRSTSESTAALGCLVKDYFPEPVTVSWNSGALTSGVHTFPAVLQSSGLYSLSSVVTVPSSSLGTKTYTCNVDHKPSNTKVDKRVESKYGPPC
light: DIVVSQSPSSLAVSAGEKVTMSCKSSQSLLNSRTRKNYLAWYQQKPGQSPKLLIYWASTRESGVPDRFTGSGSGTDFTLTISSVQAEDLAVYYCKQSYNLLTFGAGTKLELKRTVAAPSVFIFPPSDEQLKSGTASVVCLLNNFYPREAKVQWKVDNALQSGNSQESVTEQDSKDSTYSLSSTLTLSKADYEKHKVYACEVTHQGLSSPVTKSFNRGECEDQVDPRLIDGK
notes: VH-CH1 (human IgG4) with partial hinge YGPPC; light chain with HPC4 tag; Entries may include signal peptides; also called antiTLT-1 0004Fab-YGPPC; (0023LC-HPC4)

Assays:
FVIIa-Fab1029 = target: T2, FVIIa-Fab1029 (human, UniProt P08709 61-466, linker attached as sialic acid derivative to an N-linked glycan (ST3Gal-III); gamma-carboxylated Glu in the Gla domain; unpaired hinge Cys (YGPPC) coupled by maleimide to the 10 kDa PEG linker); assay: SPR Biacore T100, TLT-1 immobilised on CM5, analyte 20-0.3 nM
T2 construct: FVIIa is the two-chain form cleaved between Arg152 and Ile153; also called conjugate of anti TLT-1-FAB fragment (Fab0084) to FVIIa, 10 kDa PEG linker
Method: TLT-1 was immobilized directly to a CM5 chip to a level of approx 2000 RU (50 ug/ml diluted in Na-acetate, pH 4.0) using the standard procedure recommended by the supplier and reagents provided in Table 16. Two-fold dilutions of FVIIa-Fab1029 and FIX-Fab0135 from 20 nM to 0.3 nM were tested for binding to TLT-1. Running and dilution buffer: 10 mM HEPES, 150 mM, 0.005% p20, pH 7.4. Regeneration was obtained by 10 mM Glycine, pH 1.7. Determination of kinetic and binding constants (kₒₙ, koff, KD) was obtained assuming a 1:1 interaction of TLT-1 and FVIIa-Fab1029 or FIX-Fab0135 using the Biacore T100 evaluation software.

human fibrinogen = target: T1, human fibrinogen; assay: SPR Biacore T100, TLT-1 immobilised on CM5, fibrinogen 200-0.2 nM as analyte
Method: Human TLT-1 was immobilised to a level of approx 1000 RU on a CM5 chip (50 μg/ml diluted in Na-acetate, pH 4.0) using the standard procedure recommended by the supplier. Four-fold dilutions of human fibrinogen from 200 nM to 0.2 nM were tested for binding to the immobilized TLT-1. Running and dilution buffer: 10 mM HEPES, 150 mM, 0.005% p20, pH 7.4. Regeneration was obtained by 10 mM Glycine, pH 1.7.
Determination of kinetic and binding constants (kₒₙ, koff, KD) was obtained assuming a 1:1 interaction of TLT-1 and fibrinogen using the Biacore T100 evaluation software (Table 11).

FVIIa-Fab1001 = target: T3, FVIIa-Fab1001 (human, UniProt P08709 61-466, linker attached as sialic acid derivative to an N-linked glycan (ST3Gal-III); gamma-carboxylated Glu in the Gla domain; unpaired hinge Cys (YGPPC) coupled by maleimide to the 3 kDa PEG linker); assay: SPR Biacore T200, His-tagged TLT-1 captured via anti 6xHis mAb, analyte 29.29-0.45 nM, 25 C
T3 construct: FVIIa is the two-chain form; also called conjugate of anti TLT-1-FAB fragment (Fab0084) to FVIIa via a 3 kDa PEG linker
Method: Method: An anti 6×his antibody was immobilised to a level of approx 9000 RU on a CM5 chip (0.5 mg/ml diluted in Na-acetate, pH 5.0) using the standard procedure recommended by the supplier. Human his-tagged TLT-1 in a concentration of 100 ng/ml was used as ligand. FVIIa-Fab1001 in two-fold dilutions from 29.29 nM to 0.45 nM was used as analytes. The running and dilution buffer was made from: 10 mM HEPES, 150 mM NaCl, 3 mM EDTA, 0.005% p20, pH 7.4. Regeneration was obtained by 3 M MgCl₂. The experiment was run at 25 degree Celsius. Determination of kinetic and binding constants (kₒₙ, koff, KD) was obtained assuming a 1:1 interaction of TLT1 and FVIIa-Fab1001 using the Biacore T200 evaluation software (Table 19).

hTLT-1 ECD-His = target: B1; assay: SPR Biacore, TLT-1-His captured via anti-His mAb, Fab as analyte
Method: Method: The mAbs of interest were either immobilized directly to a CM5 chip or by capture via a human Fc capture mAb immobilized to a CM5 chip, while TLT-1-His was immobilized by capture via an anti-His mAb CM5 chip for analysis of Fabs.
TLT-1-His capture via anti-His mAb (R&D #MAB050): The anti-His mAb was immobilised to approx 9.000 RU. The TLT-1-His was added to a level of approx 30-40 RU (10 μg/ml diluted in 10 mM Hepes, 150 mM NaCl, 3 mM EDTA, 0.005% Tween-20) using the standard procedure recommended by the supplier. 8-fold dilutions of Fabs from 3 to 0.047 μg/ml were tested for binding to the TLT-1-His. Running and dilution buffer: 10 mM Hepes, 150 mM NaCl, 3 mM EDTA, 0.005% Tween-20. Regeneration was obtained by 3 M MgCl₂.

T3 sequence (P08709 61-466 limits assumed): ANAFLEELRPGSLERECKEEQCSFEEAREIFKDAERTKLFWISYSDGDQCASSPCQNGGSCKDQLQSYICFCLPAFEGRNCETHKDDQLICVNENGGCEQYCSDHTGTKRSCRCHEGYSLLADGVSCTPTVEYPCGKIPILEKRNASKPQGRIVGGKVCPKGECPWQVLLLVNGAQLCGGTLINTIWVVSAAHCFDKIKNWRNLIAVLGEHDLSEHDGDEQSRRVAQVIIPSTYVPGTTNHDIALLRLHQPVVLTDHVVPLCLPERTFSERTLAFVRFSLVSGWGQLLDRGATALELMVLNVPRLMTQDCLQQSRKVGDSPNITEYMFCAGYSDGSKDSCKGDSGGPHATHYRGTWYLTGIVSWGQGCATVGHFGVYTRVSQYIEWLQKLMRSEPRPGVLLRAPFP
T2 sequence (P08709 61-466 limits assumed): as above

Row | Binder | Kd (FVIIa-Fab1029) [nM] | koff (FVIIa-Fab1029) [s⁻¹] | kon (FVIIa-Fab1029) [M⁻¹ s⁻¹] | Kd (human fibrinogen) [nM] | koff (human fibrinogen) [s⁻¹] | kon (human fibrinogen) [M⁻¹ s⁻¹] | Kd (FVIIa-Fab1001) [nM] | koff (FVIIa-Fab1001) [s⁻¹] | kon (FVIIa-Fab1001) [M⁻¹ s⁻¹] | Kd (hTLT-1 ECD-His) [nM] | koff (hTLT-1 ECD-His) [s⁻¹] | kon (hTLT-1 ECD-His) [M⁻¹ s⁻¹]
1 | B1 | 18.3 | 0.00726 | 397000 | 94 | 0.000392 | 4170 | 3.99 | 0.00319 | 801000 | – | – | –
2 | B2 | – | – | – | – | – | – | – | – | – | 2.38 | 0.00798 | 3.35e+06
3 | B3 | – | – | – | – | – | – | – | – | – | 0.99 | 0.00524 | 5.31e+06
4 | B4 | – | – | – | – | – | – | – | – | – | 5.2 | 0.00279 | 536000
5 | B5 | – | – | – | – | – | – | – | – | – | 1.7 | 0.00195 | 1.15e+06
